The record followed here is the supplement of paper PMC10567573.

The chains are these.
B1: ATL3 (parent)
chain: FSFRYQQELEEEIKELYENFCKHN
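Also: lentivirally expressed fusions sorted by FACS into six bins by GFP to DsRed ratio, PSI derived from sequencing read proportions per bin multiplied by bin number.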

Variants of B1 are the subject of this data set. The data set can be described thus: protein stability index of a GFP-peptide fusion (GPS, HEK-293T) (PSI 1-6); higher = more stable. The settings on record: c terminus: a fixed tail appended.
As for FSFRYQQELEEEIKELYYNFCKHN [E18Y], the protein stability index was determined as 2.15.
The figure for FSFRYQQELEEEIKELYCNFCKHN [E18C] is 1.57.
In the case of FSFRYQQELEEEIKELYFNFCKHN [E18F], the protein stability index was 1.21.
The figure for FSFRYQQELEEEIKELYPNFCKHN [E18P] is 1.77.
With FSFRYQQELEEEIKELYNNFCKHN [E18N], the protein stability index stood at 2.15.
The result for FSFRYQQELEEEIKELYINFCKHN [E18I] reads 2.28; that for FSFRYQQELEEEIKELYVNFCKHN [E18V], 3.55; that for FSFRYQQELEEEIKELYANFCKHN [E18A], 2.19.
Take FSFRYQQELEEEIKELYMNFCKHN [E18M]: the protein stability index was 2.27.
On to FSFRYQQELEEEIKELYTNFCKHN [E18T], for which the protein stability index came to 2.52.
Take FSFRYQQELEEEIKELYRNFCKHN [E18R]: the protein stability index came to 1.96.
The result for FSFRYQQELEEEIKELNENFCKHN [Y17N] reads 3.09; that for FSFRYQQELEEEIKELWENFCKHN [Y17W], 2.48.
Turning to FSFRYQQELEEEIKELVENFCKHN [Y17V], the protein stability index is 3.33.
The result for FSFRYQQELEEEIKELQENFCKHN [Y17Q] reads 4.02; that for FSFRYQQELEEEIKELMENFCKHN [Y17M], 2.68; that for FSFRYQQELEEEIKELPENFCKHN [Y17P], 4.27.
The figure for FSFRYQQELEEEIKELSENFCKHN [Y17S] is 3.49; for FSFRYQQELEEEIKELTENFCKHN [Y17T] it is 3.76; for FSFRYQQELEEEIKELRENFCKHN [Y17R] it is 2.73.
With FSFRYQQELEEEIKELYENFCKHA [N24A], the protein stability index is 2.37.
The figure for FSFRYQQELEEEIKELYENFCKHD [N24D] is 2.49; for FSFRYQQELEEEIKELYENFCKHE [N24E] it is 1.93.
As for FSFRYQQELEEEIKELYENFCKHS [N24S], the protein stability index came out at 2.14.
The result for FSFRYQQELEEEIKELYENFCKHK [N24K] reads 2.48; that for FSFRYQQELEEEIKELYENFCKHH [N24H], 2.64.
The figure for FSFRYQQELEEEIKELYENFCKHY [N24Y] is 2.61; for FSFRYQQELEEEIKELYENFCKHM [N24M] it is 2.49.
The figure for FSFRYQQELEEEIKELYENFCKHV [N24V] is 3.5; for FSFRYQQELEEEIKELYENFCKHC [N24C] it is 2.77.
Take FSFRYQQELEEEIKELYENFCKHI [N24I]: the protein stability index was found to be 2.82.
The figure for FSFRYQQELEEEIKELYENFCKHL [N24L] is 2.64.
Turning to FSFRYQQELEEEIKELYENFCKHW [N24W], the protein stability index came to 2.12.
As for FSFRYQQELEEEIKELYENFCKHP [N24P], the protein stability index was 1.96.
For the variant FSFRYQQELEEEIKELYENFCKHG [N24G], the protein stability index was determined as 2.36.
The result for FSFRYQQELEEEIKELYENFCKHF [N24F] reads 3.38.
The figure for FSFRYQQELEEEIKELYENFCKHT [N24T] is 3.13; for FSFRYQQELEEEIKELYENFCKHR [N24R] it is 2.42; for FSFRYQQELEEEIKELYENFCKLN [H23L] it is 2.73.
The figure for FSFRYQQELEEEIKELYENFCKCN [H23C] is 1.84.
Turning to FSFRYQQELEEEIKELYENFCKPN [H23P], the protein stability index came out at 1.6.
FSFRYQQELEEEIKELYENFCKMN [H23M]: the protein stability index is 2.49.
The result for FSFRYQQELEEEIKELYENFCKQN [H23Q] reads 2.75; that for FSFRYQQELEEEIKELYENFCKGN [H23G], 2.04; that for FSFRYQQELEEEIKELYENFCKRN [H23R], 1.86.
For the variant FSFRYQQELEEEIKELYENFCKEN [H23E], the protein stability index worked out at 2.63.
The result for FSFRYQQELEEEIKELYENFCKNN [H23N] reads 2.3; that for FSFRYQQELEEEIKELYENFCKTN [H23T], 3.04.
On to FSFRYQQELEEEIKELYENFCKSN [H23S], for which the protein stability index amounted to 2.1.
The result for FSFRYQQELEEEIKELYENFCKIN [H23I] reads 2.43; that for FSFRYQQELEEEIKELYENFCKFN [H23F], 2.19; that for FSFRYQQELEEEIKELYENFCKYN [H23Y], 2.49.
The result for FSFRYQQELEEEIKELYENFCKDN [H23D] reads 2.12; that for FSFRYQQELEEEIKELYENFCKWN [H23W], 2.14.
On to FSFRYQQELEEEIKELYENFCKKN [H23K], for which the protein stability index was 3.21.
The figure for FSFRYQQELEEEIKELYENFCKAN [H23A] is 2.25; for FSFRYQQELEEEIKELYENECKHN [F20E] it is 3.58; for FSFRYQQELEEEIKELYENRCKHN [F20R] it is 2.8.
For the variant FSFRYQQELEEEIKELYENMCKHN [F20M], the protein stability index stood at 2.17.
The figure for FSFRYQQELEEEIKELYENACKHN [F20A] is 2.83.
On to FSFRYQQELEEEIKELYENHCKHN [F20H], for which the protein stability index amounted to 2.73.
Turning to FSFRYQQELEEEIKELYENKCKHN [F20K], the protein stability index worked out at 2.81.
Regarding FSFRYQQELEEEIKELYENWCKHN [F20W], the protein stability index worked out at 1.9.
The result for FSFRYQQELEEEIKELYENDCKHN [F20D] reads 2.62.
The figure for FSFRYQQELEEEIKELYENNCKHN [F20N] is 2.61.
Take FSFRYQQELEEEIKELYENTCKHN [F20T]: the protein stability index was determined as 2.41.
The figure for FSFRYQQELEEEIKELYENQCKHN [F20Q] is 2.55; for FSFRYQQELEEEIKELYENCCKHN [F20C] it is 2.66; for FSFRYQQELEEEIKELYENLCKHN [F20L] it is 2.19.
FSFRYQQELEEEIKELYENYCKHN [F20Y]: the protein stability index worked out at 2.38.
In the case of FSFRYQQELEEEIKELYENGCKHN [F20G], the protein stability index worked out at 2.81.
Regarding FSFRYQQELEEEIKELYENSCKHN [F20S], the protein stability index was found to be 3.01.
Take FSFRYQQELEEEIKELYENVCKHN [F20V]: the protein stability index worked out at 2.02.
In the case of FSFRYQQELEEEIKELYENICKHN [F20I], the protein stability index worked out at 1.71.
The result for FSFRYQQELEEEIKELYENPCKHN [F20P] reads 2.5; that for FSFRYQQELEEEIKELYENFCAHN [K22A], 2.45.
The result for FSFRYQQELEEEIKELYENFCFHN [K22F] reads 2.08; that for FSFRYQQELEEEIKELYENFCPHN [K22P], 1.97.
The result for FSFRYQQELEEEIKELYENFCCHN [K22C] reads 2.06; that for FSFRYQQELEEEIKELYENFCSHN [K22S], 2.33.
Turning to FSFRYQQELEEEIKELYENFCQHN [K22Q], the protein stability index stood at 2.93.
Turning to FSFRYQQELEEEIKELYENFCLHN [K22L], the protein stability index worked out at 2.77.
The figure for FSFRYQQELEEEIKELYENFCDHN [K22D] is 2.42.
For FSFRYQQELEEEIKELYENFCVHN [K22V], the protein stability index came out at 1.99.
The figure for FSFRYQQELEEEIKELYENFCNHN [K22N] is 2.54; for FSFRYQQELEEEIKELYENFCGHN [K22G] it is 2.58.
In the case of FSFRYQQELEEEIKELYENFCMHN [K22M], the protein stability index turned out to be 2.24.
Regarding FSFRYQQELEEEIKELYENFCTHN [K22T], the protein stability index stood at 3.02.
The figure for FSFRYQQELEEEIKELYENFCIHN [K22I] is 2.23; for FSFRYQQELEEEIKELYENFCHHN [K22H] it is 2.04.
The figure for FSFRYQQELEEEIKELYENFCRHN [K22R] is 2.12; for FSFRYQQELEEEIKELYENFCYHN [K22Y] it is 2.01; for FSFRYQQELEEEIKELYENFCEHN [K22E] it is 2.41.
As for FSFRYQQELEEEIKELYENFCWHN [K22W], the protein stability index was 1.35.
